For orientation: EC50 means the concentration giving half of the maximal effect.

One experiment concerns the target T1, mCCRL2 (Mus musculus, UniProt O35457).
T1 construct: The coding regions of mCCRL2, huCCRL2, mCRTH2, and huCCR10 were amplified from genomic DNA; expressed in transfected cells
T1 sequence (O35457 1-360): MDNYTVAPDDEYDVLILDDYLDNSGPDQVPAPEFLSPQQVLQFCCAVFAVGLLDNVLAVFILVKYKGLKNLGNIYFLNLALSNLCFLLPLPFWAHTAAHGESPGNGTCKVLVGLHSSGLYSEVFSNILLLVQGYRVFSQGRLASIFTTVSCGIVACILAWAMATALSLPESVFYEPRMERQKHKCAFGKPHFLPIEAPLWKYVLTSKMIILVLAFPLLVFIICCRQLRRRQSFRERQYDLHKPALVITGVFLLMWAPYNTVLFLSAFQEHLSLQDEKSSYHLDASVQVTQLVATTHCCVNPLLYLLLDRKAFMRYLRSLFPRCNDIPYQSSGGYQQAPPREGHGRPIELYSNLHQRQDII
Kind of experiment: chemerin internalization assay, mCCRL2-HA/L1.2 cells. The format is cell-based. Conditions: 10 nM His8-tagged serum form chemerin. The procedure:
The primary cells were also stained with F4/80 and c-kit mAbs. Secondary anti-His6 PE was added to the cells and incubated for 30 minutes on ice. […] The cells were incubated for 5 minutes on ice with either PBS or acid wash buffer (0.2 M acetic acid, 0.5 M NaCl), and then analyzed by flow cytometry. Mast cells were identified by gating on SSC^high F4/80^− c-kit^+ cells.

In experiment [1] the target is T2, mCMKLR1 (Mus musculus, UniProt P97468).
T2 construct: expressed in transfected cells; host or cells: L1.2 mouse pre-B lymphoma cells
T2 sequence (P97468 1-371): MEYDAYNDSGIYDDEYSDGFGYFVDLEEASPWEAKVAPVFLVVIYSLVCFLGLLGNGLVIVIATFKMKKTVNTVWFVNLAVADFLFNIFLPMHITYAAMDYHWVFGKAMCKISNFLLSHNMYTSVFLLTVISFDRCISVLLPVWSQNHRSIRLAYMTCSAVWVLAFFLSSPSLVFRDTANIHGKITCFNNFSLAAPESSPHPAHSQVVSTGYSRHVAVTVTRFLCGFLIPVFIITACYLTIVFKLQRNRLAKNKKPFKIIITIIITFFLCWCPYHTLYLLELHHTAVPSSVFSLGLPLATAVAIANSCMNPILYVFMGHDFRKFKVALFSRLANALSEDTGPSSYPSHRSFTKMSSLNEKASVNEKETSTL
Put plainly: receptor internalization assay, mCMKLR1-HA L1.2. The class given is cell-based. The conditions noted are these: 100 nM chemerin. The procedure:
The cells were then washed with 200 μl PBS and stained with mouse anti-HA (Covance, Inc) or mIgG1 isotype control, followed by staining with secondary anti-mouse IgG1 PE, fixed, and analyzed by flow cytometry.

A further experiment has as its target T3, mCRTH2 (Mus musculus, UniProt Q9Z2J6).
T3 construct: The coding regions of mCCRL2, huCCRL2, mCRTH2, and huCCR10 were amplified from genomic DNA; expressed in transfected cells
T3 sequence (Q9Z2J6 1-382): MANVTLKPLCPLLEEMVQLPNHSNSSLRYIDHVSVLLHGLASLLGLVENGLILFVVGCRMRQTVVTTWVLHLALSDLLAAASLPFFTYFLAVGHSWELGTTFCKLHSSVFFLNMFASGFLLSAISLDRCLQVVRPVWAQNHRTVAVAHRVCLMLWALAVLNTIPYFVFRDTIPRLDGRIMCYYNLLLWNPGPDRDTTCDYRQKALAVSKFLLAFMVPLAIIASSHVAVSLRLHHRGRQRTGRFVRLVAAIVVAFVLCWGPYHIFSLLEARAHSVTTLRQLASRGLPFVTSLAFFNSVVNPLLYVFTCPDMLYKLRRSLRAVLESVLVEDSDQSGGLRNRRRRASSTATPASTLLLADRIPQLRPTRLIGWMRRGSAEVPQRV
Kind of experiment: radioligand binding to untransfected or mCRTH2-HA-transfected cells. The conditions noted are these: data not shown.

The target in experiment [2] is T2, mCMKLR1. Kind of experiment: intracellular calcium mobilization, mCMKLR1 L1.2 transfectants. The class given is cell-based. Conditions: Fluo-4. The procedure: Chemoattractant-stimulated Ca^2+-mobilization was performed following Alliance for Cell Signaling protocol ID PP00000210. Cells (3×10^6/mL) were loaded with 4 μM Fluo4-AM and 0.16% Pluronic acid F-127 (Molecular Probes) in modified Iscove's medium (Iscove's medium with 1% heat inactivated bovine calf serum and 2 mM L-glutamine, Invitrogen) for 30 minutes at 37° C. The samples were mixed every 10 minutes during loading, washed once, resuspended at up to 2×10^6/mL in the same buffer, and allowed to rest in the dark for 30 minutes at room temperature. Chemoattractant-stimulated change in Ca^2+-sensitive fluorescence of Fluo-4 was measured over real-time with a FACsScan flow cytometer and CellQuest software (BD Biosciences) at room temperature under constant stirring (500 rpm). Fluorescent data were acquired continuously up to 1024 seconds at 1-second intervals. The samples were analyzed for 45 seconds to establish basal state, removed from the nozzle to add the stimuli, and then returned to the nozzle. Mean channel fluorescence over time was analyzed with FlowJo (TreeStar, Ashland, Oreg., USA) software. […] 500 μl of these chemerin-loaded cells were added to mCMKLR1/L1.2 cells loaded with Fluo4-AM, and calcium mobilization was evaluated.
For orientation: Calcium assays in cells follow changes in intracellular calcium, usually with a dye or a luminescent sensor.

The next experiment deals with T4, huCCRL2 (Homo sapiens, UniProt O00421).
T4 construct: The coding regions of mCCRL2, huCCRL2, mCRTH2, and huCCR10 were amplified from genomic DNA; expressed in transfected cells
T4 sequence (O00421 1-344): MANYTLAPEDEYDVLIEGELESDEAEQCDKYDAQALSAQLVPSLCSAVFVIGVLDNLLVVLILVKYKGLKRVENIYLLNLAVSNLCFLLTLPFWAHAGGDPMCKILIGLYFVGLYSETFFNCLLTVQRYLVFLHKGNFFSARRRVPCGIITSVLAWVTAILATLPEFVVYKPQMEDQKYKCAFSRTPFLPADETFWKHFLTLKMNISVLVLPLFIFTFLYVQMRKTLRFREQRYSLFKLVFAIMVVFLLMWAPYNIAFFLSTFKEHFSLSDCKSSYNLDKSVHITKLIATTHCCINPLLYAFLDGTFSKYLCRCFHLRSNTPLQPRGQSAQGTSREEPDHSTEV
Put plainly: immunofluorescence-based chemerin-binding assay, huCCRL2-HA L1.2. Conditions: read-out: EC50, untagged chemerin vs His8-tagged chemerin binding; 10 nM His8-tagged serum form chemerin, 30 min on ice, anti-His6 PE.

With “chemerin: protein ligand for signaling receptor CMKLR1; serum form human chemerin expressed in baculovirus-infected insect cells, His8-tag removed”, the “acid resistant cell-associated chemerin” value is listed as “essentially no” with mCCRL2 (5 min at 37° C.) and “very little” with mCCRL2 (60 min at 37° C.). The “time to ligand-induced receptor internalization” value in the experiment with mCMKLR1 [1] is recorded as not above 15 min. For the same substance, the radiolabeled chemerin binding result with mCRTH2 is recorded as “no binding was detected”. In the experiment with mCMKLR1 [2], the intracellular calcium mobilization entry is recorded as “robust calcium flux”. In addition, the EC50 in the experiment with huCCRL2 amounted to 7 nM.

These data come from US20100092974A1, “METHODS FOR SCREENING FOR MODULATORS OF CCRL2” (The Board of Trustees of the Leland Stanford Junior …, priority 2008, published 2010).
